Assay results: patent US20070141652

Key:
[1] = target: purified wild-type Xenopus TPX2 (GST tag removed)
[2] = target: ΔNTPX2 (Xenopus TPX2 with amino acid 1 to 40 deleted, GST tag removed)

B1: Xenopus Aurora A kinase (AurA, also called Eg2), endogenous in egg extracts (protein)
chain: MERAVKENHKPSNVKIFHPMTEGAKRIPVNQPQSTQFRPPGTAVSAQRILGPSNVPQRVLAQAQKPILSSQKPTTQIPLRPATQGHQSSKPQGPNENRNPQQTSHSSTPNVEKKGSTDQGKTSAVPKEEGKKKQWCLEDFEIGRPLGKGKFGNVYLARERESKFILALKVLFKSQLEKAGVEHQLRREVEIQSHLRHPNILRLYGYFHDASRVYLILDYAPGGELFRELQKCTRFDDQRSAMYIKQLAEALLYCHSKKVIHRDIKPENLLLGSNGELKIADFGWSVHAPSSRRTTLCGTLDYLPPEMIEGRMHDETVDLWSLGVLCYEFLVGKPPFETDTHQETYRRISKVEFQYPPYVSEEARDLVSKLLKHNPNHRLPLKGVLEHPWIIKNSQLKKKDEPLPGAQ
Which results are given for B1?
AurA activation, as determined by autophosphorylation of the activation loop at threonine 295 of AurA with antibody recognizing phospho-T295 [1]: RanGTP-induced AurA activation in TPX2-depleted egg extracts could be rescued by adding purified wild-type TPX2; AurA activation, as determined by autophosphorylation of the activation loop at threonine 295 of AurA with antibody recognizing phospho-T295 [2]: AurA activation was either completely lacking or slightly enhanced compared to the TPX2-depleted egg extract
